Data on 150 variants can be found in article PMC11480844 (2024).

First the molecules themselves.
B1: H2-Kb / Ed40 (parent complex)
chain 1: GDSVTQTEGPVTVSESESLIINCTYSATSIAYPNLFWYVRYPGEGLQLLLKVITAGQKGSSRGFEATYNKETTSFHLQKASVQESDSAVYYCALGDGYTGNYKYVFGAGTRLKVIA
chain 2: DSGVVQSPRHIIKEKGGRSVLTCIPISGHSNVVWYQQTLGKELKFLIQHYEKVERDKGFLPSRFSVQQFDDYHSEMNMSALELEDSAMYFCASSGASAETLYFGSGTRLTVL
chain 3: not shown
chain 4: IQKTPQIQVYSRHPPENGKPNILNCYVTQFHPPHIEIQMLKNGKKIPKVEMSDMSFSKDWSFYILAHTEFTPTETDTYACRVKHDSMAEPKTVYWDRDM
chain 5: SIINFEKL
B2: H2-Kb / Ed33 (parent complex)
chain 1: SQLAEENSWALSVHEGESVTVNCSYKTSITALQWYRQKSGKGPAQLILIRSNEREKRNGRLRATLDTSSQSSSLSITATRCEDTAVYFCATDHNNAGAKLTFGGGTRLTVRP
chain 2: DAGVTQTPRHEVAEKGQTIILKCEPVSGHNDLFWYRQTKIQGLELLSYFRSKSLMEDGGAFKDRFKAEMLNSSFSTLKIQPTEPKDSAVYLCASSLYTNQAPLFGEGTRLSVL
chain 3: not shown
chain 4: B1 chain 4
chain 5: SIINFEKL
Note: test concentration or dose not given here.

The variants in one experiment derive from B1. The experiment in a line: % of reporter cells activated (NFAT-GFP), raw.
As for chain 5 N4Q, the ratio to parent worked out at 0.00152.

chain 5 N4V: the ratio to parent was determined as 0.00392.

Regarding chain 5 N4K, the ratio to parent was determined as 0.0365.

For chain 5 F5M, the ratio to parent turned out to be 0.856.

Take chain 5 F5Y: the ratio to parent was found to be 1.11.

In the case of chain 5 F5H, the ratio to parent was 1.06.

On to chain 5 F5A, for which the ratio to parent came out at 0.944.

Consider chain 5 F5C, for which the ratio to parent was found to be 1.01.

With chain 5 F5T, the ratio to parent was found to be 1.22.

In the case of chain 5 F5G, the ratio to parent turned out to be 0.78.

For chain 5 F5P, the ratio to parent amounted to 0.944.

For the variant chain 5 F5V, the ratio to parent came to 0.868.

Turning to chain 5 S1H, the ratio to parent was found to be 0.914.

Take chain 5 S1T: the ratio to parent was 0.92.

Take chain 5 S1A: the ratio to parent worked out at 1.01.

Take chain 5 S1M: the ratio to parent was found to be 0.993.

Consider chain 5 S1R, for which the ratio to parent stood at 0.532.

As for chain 5 S1I, the ratio to parent is 0.597.

chain 5 E6M: the ratio to parent was found to be 0.172.

With chain 5 E6V, the ratio to parent stood at 0.00511.

As to chain 5 E6D, the ratio to parent was found to be 0.844.

Consider chain 5 E6Y, for which the ratio to parent is 0.0704.

Turning to chain 5 E6L, the ratio to parent amounted to 0.11.

On to chain 5 E6S, for which the ratio to parent turned out to be 0.162.

As to chain 5 E6T, the ratio to parent came out at 0.0789.

On to chain 5 E6K, for which the ratio to parent was 0.634.

Consider chain 5 I2Y, for which the ratio to parent was found to be 0.834.

With chain 5 I2P, the ratio to parent came out at 1.07.

As to chain 5 I2C, the ratio to parent came out at 1.02.

For chain 5 I2W, the ratio to parent came out at 0.654.

For the variant chain 5 I2F, the ratio to parent worked out at 1.

As to chain 5 I2M, the ratio to parent stood at 0.913.

Turning to chain 5 I2K, the ratio to parent turned out to be 0.968.

Consider chain 5 I2D, for which the ratio to parent is 1.2.

As for chain 5 I2H, the ratio to parent amounted to 0.7.

Regarding chain 5 K7C, the ratio to parent worked out at 0.0448.

Take chain 5 K7Y: the ratio to parent was found to be 0.444.

For chain 5 K7N, the ratio to parent is 0.163.

Turning to chain 5 K7H, the ratio to parent stood at 0.754.

For the variant chain 5 K7Q, the ratio to parent was 0.121.

Consider chain 5 K7G, for which the ratio to parent worked out at 0.382.

chain 5 L8R: the ratio to parent stood at 0.785.

As for chain 5 L8A, the ratio to parent was found to be 0.816.

Consider chain 5 L8S, for which the ratio to parent turned out to be 0.681.

In the case of chain 5 L8W, the ratio to parent is 0.787.

Regarding chain 5 L8I, the ratio to parent was 0.95.

chain 5 L8K: the ratio to parent is 0.816.

In the case of chain 5 L8C, the ratio to parent was determined as 0.555.

As for chain 5 L8N, the ratio to parent worked out at 0.645.

As to chain 5 I3K, the ratio to parent was found to be 0.791.

chain 5 I3E: the ratio to parent was 0.545.

For chain 5 I3A, the ratio to parent is 0.28.

With chain 5 I3P, the ratio to parent is 0.601.

chain 5 I3S: the ratio to parent came to 0.789.

For the variant chain 5 I3H, the ratio to parent is 0.67.

Another experiment covers variants of B2. The experiment in a line: % of reporter cells activated (NFAT-GFP), raw.
For chain 5 I2W, the ratio to parent came out at 0.738.

In the case of chain 5 I2A, the ratio to parent was 0.885.

For the variant chain 5 I2M, the ratio to parent came to 1.08.

For chain 5 I2H, the ratio to parent was found to be 0.835.

Take chain 5 I2C: the ratio to parent was 0.918.

In the case of chain 5 I2Q, the ratio to parent came out at 0.918.

Take chain 5 I2P: the ratio to parent came out at 1.03.

As to chain 5 I2Y, the ratio to parent was determined as 0.715.

In the case of chain 5 I2S, the ratio to parent was found to be 0.691.

Consider chain 5 I2E, for which the ratio to parent turned out to be 1.03.

As to chain 5 I2G, the ratio to parent came out at 0.456.

Turning to chain 5 I2K, the ratio to parent turned out to be 1.01.

As for chain 5 E6T, the ratio to parent worked out at 0.0145.

In the case of chain 5 E6I, the ratio to parent was found to be 0.00689.

As to chain 5 E6G, the ratio to parent stood at 0.513.

As to chain 5 E6Q, the ratio to parent is 0.218.

chain 5 E6L: the ratio to parent came to 0.00458.

As for chain 5 E6D, the ratio to parent stood at 0.113.

For the variant chain 5 E6A, the ratio to parent was 0.055.

For chain 5 E6K, the ratio to parent turned out to be 0.425.

On to chain 5 E6S, for which the ratio to parent is 0.0699.

For chain 5 N4Y, the ratio to parent was determined as 0.0163.

As to chain 5 N4H, the ratio to parent is 0.134.

Regarding chain 5 N4V, the ratio to parent turned out to be 0.181.

Regarding chain 5 N4I, the ratio to parent came out at 0.271.

As to chain 5 N4R, the ratio to parent stood at 0.168.

Consider chain 5 N4T, for which the ratio to parent was found to be 0.0148.

Take chain 5 N4A: the ratio to parent worked out at 0.00624.

With chain 5 N4M, the ratio to parent is 0.00151.

With chain 5 N4Q, the ratio to parent turned out to be 0.00449.

In the case of chain 5 N4G, the ratio to parent stood at 0.294.

With chain 5 N4E, the ratio to parent was found to be 0.246.

Turning to chain 5 N4S, the ratio to parent amounted to 0.00273.

Regarding chain 5 N4K, the ratio to parent is 0.41.

Consider chain 5 N4W, for which the ratio to parent is 0.0116.

On to chain 5 S1F, for which the ratio to parent turned out to be 0.3.

chain 5 S1I: the ratio to parent was found to be 0.0715.

Take chain 5 S1V: the ratio to parent is 0.349.

Take chain 5 S1R: the ratio to parent was 0.392.

In the case of chain 5 S1P, the ratio to parent amounted to 0.115.

With chain 5 S1T, the ratio to parent was 0.61.

With chain 5 S1M, the ratio to parent was determined as 0.675.

In the case of chain 5 S1L, the ratio to parent was found to be 0.0492.

On to chain 5 S1Y, for which the ratio to parent amounted to 0.414.

In the case of chain 5 S1A, the ratio to parent worked out at 0.461.

Take chain 5 S1C: the ratio to parent is 0.295.

In the case of chain 5 S1E, the ratio to parent amounted to 1.02.

Consider chain 5 L8M, for which the ratio to parent came out at 0.936.

For the variant chain 5 L8E, the ratio to parent worked out at 0.8.

Consider chain 5 L8R, for which the ratio to parent stood at 0.873.

For chain 5 L8A, the ratio to parent is 0.913.

Turning to chain 5 L8C, the ratio to parent came out at 0.824.

Take chain 5 L8I: the ratio to parent turned out to be 0.988.

Regarding chain 5 L8T, the ratio to parent came out at 0.929.

With chain 5 L8F, the ratio to parent stood at 0.941.

For the variant chain 5 L8Q, the ratio to parent was found to be 0.9.

As for chain 5 L8S, the ratio to parent worked out at 0.84.

With chain 5 L8G, the ratio to parent came out at 0.87.

For chain 5 L8V, the ratio to parent is 0.815.

chain 5 K7C: the ratio to parent turned out to be 0.063.

With chain 5 K7E, the ratio to parent is 0.0117.

On to chain 5 K7H, for which the ratio to parent worked out at 0.0435.

For chain 5 K7G, the ratio to parent is 0.204.

chain 5 K7R: the ratio to parent is 0.318.

In the case of chain 5 K7N, the ratio to parent turned out to be 0.216.

With chain 5 K7L, the ratio to parent worked out at 0.0519.

For chain 5 K7D, the ratio to parent was 0.0503.

With chain 5 K7T, the ratio to parent is 0.0585.

For chain 5 I3L, the ratio to parent amounted to 0.984.

As for chain 5 I3V, the ratio to parent turned out to be 0.933.

For the variant chain 5 I3S, the ratio to parent is 1.01.

As for chain 5 I3E, the ratio to parent worked out at 1.06.

In the case of chain 5 I3C, the ratio to parent came to 1.02.

Consider chain 5 I3W, for which the ratio to parent came to 0.836.

As for chain 5 I3R, the ratio to parent is 0.581.

Turning to chain 5 I3P, the ratio to parent is 1.09.

As for chain 5 I3F, the ratio to parent turned out to be 0.0275.

With chain 5 I3K, the ratio to parent was 0.656.

Regarding chain 5 I3A, the ratio to parent stood at 1.03.

In the case of chain 5 I3G, the ratio to parent was 1.03.

In the case of chain 5 I3Q, the ratio to parent was determined as 1.08.

In the case of chain 5 I3N, the ratio to parent amounted to 0.932.

Regarding chain 5 I3Y, the ratio to parent came out at 0.0463.

For chain 5 F5H, the ratio to parent stood at 0.911.

chain 5 F5Y: the ratio to parent amounted to 1.04.

Consider chain 5 F5V, for which the ratio to parent amounted to 0.917.

As for chain 5 F5S, the ratio to parent was 0.958.

Consider chain 5 F5M, for which the ratio to parent was 1.09.

As for chain 5 F5L, the ratio to parent came to 0.916.

For the variant chain 5 F5W, the ratio to parent stood at 0.968.

Consider chain 5 F5A, for which the ratio to parent is 1.1.

For the variant chain 5 F5P, the ratio to parent was determined as 0.988.

As to chain 5 F5I, the ratio to parent is 0.655.

chain 5 F5T: the ratio to parent was 1.08.

Turning to chain 5 F5D, the ratio to parent was determined as 0.85.
